Measured values published in US20250320312A1 (OXITOPE PHARMA B V, published 2025).

T1: Peptide 4: Biotin-AGGGGSGGGGSGGGGSAAA-Tyr-acid (N-terminal biotin; C-terminal acid)
T1 construct: control peptide without PC
T1 peptide: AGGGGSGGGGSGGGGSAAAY

T2: Peptide 8: Biotin-AEAAAKEAAAKEAAAKEAAAKAAA-Tyr-acid (N-terminal biotin; C-terminal acid)
T2 construct: control peptide without PC
T2 peptide: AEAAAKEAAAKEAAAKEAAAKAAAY


Experiments:
Assay in all cases: scFv ELISA
[1] = molecular target: Peptide 1: Biotin-…-[Tyr(PC)]-acid
[2] = molecular target: Peptide 5: Biotin-…-[Tyr(PC)]-acid
[3] = molecular target: BSA (UniProt P02769)
BSA, sequence (P02769 25-607 limits assumed): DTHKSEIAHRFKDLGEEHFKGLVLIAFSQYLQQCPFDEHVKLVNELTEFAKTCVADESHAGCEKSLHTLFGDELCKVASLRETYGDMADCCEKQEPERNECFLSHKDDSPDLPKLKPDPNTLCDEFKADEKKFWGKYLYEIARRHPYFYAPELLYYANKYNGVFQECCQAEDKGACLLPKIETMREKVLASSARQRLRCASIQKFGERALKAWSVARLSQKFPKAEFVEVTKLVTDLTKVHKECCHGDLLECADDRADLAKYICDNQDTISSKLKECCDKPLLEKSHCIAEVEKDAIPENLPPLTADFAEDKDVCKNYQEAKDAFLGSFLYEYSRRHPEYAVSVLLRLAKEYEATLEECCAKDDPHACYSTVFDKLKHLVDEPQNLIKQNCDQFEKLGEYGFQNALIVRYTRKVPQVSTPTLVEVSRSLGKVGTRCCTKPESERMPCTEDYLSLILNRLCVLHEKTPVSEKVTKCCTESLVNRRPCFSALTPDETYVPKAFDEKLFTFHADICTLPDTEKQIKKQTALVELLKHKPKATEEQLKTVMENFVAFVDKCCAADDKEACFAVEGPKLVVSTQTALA

[4] = molecular target: T1, Peptide 4: …
Method: (§1) For ELISA analysis of scFv binding, 96-well polystyrene plates were coated with Peptide 1, 4, 5, 8 or 100 μL BSA (10 μg/mL) in PBS at 4° C. overnight. Plates were washed three times with PBS-Tween and blocked with 100 μL 1% BSA-TBS for 1 hour at room temperature. 96-well streptavidin coated plates were coated with 100 μL biotinylated PC-peptides (1 μg/mL) in PBS for 1 hour at room temperature.
(§2) All plates were washed three times with PBS-Tween before 40 μL aliquots of PPE were added to assay plates along with 50 μL 10% BSA, and plates were incubated for 1 hour at room temperature. After washing, […] HRP conjugated anti-V5 in 5% BSA was added, and plates were incubated at room temperature for 30 mins. Plates were washed and 100 μL TMB substrate was added. Color was left to develop at room temperature before the reaction was stopped with 100 μL 1N HCl. The amount of scFv bound to each well was quantitated from absorbance measurement at 450 nm (OD450).

[5] = molecular target: T2, Peptide 8: …
Method: as §1, §2

| Binder | OD450 [1] [OD450] | OD450 [2] [OD450] | OD450 [3] [OD450] | OD450 [4] [OD450] | OD450 [5] [OD450] |
| --- | --- | --- | --- | --- | --- |
| PcOxP_DB01_B07 (scFv, V domains shown, scFv in periplasmic extract) VH: EVQLLESGGGLVQPGGSLRLSCAASGFTFSDYYMEWVRQAPGKGLEWVAASRNKANDYTTEYADSVKGRFTISRDNSKNTLYLQMNSLRAEDTAVYYCARDYYGSSYWYFDVWGQGTLVTVSS VL: DIQMTQSPSSLSASVGDRVTITCTASESLYSSKHKVHYLAWYQQKPGKAPKLLIYGASNRYIGVPSRFSGSGSGTDFTLTISSLQPEDFATYYCAQFYSYPLTFGGGTKVEIK | 1.07 | 1.36 | 0.11 | 0.06 | 0.05 |
| PcOxP_DB01_C05 (scFv, V domains shown, scFv in periplasmic extract) VH: EVQLLESGGGLVQPGGSLRLSCAASGFTFSDGYMEWVRQAPGKGLEWVAASRNKANDYTTEYADSVKGRFTISRDNSKNTLYLQMNSLRAEDTAVYYCARDYYGSSYWYFDVWGQGTLVTVSS VL: DIQMTQSPSSLSASVGDRVTITCTASESLYSSKHKVHYLAWYQQKPGKAPKLLIYGSSNRYIGVPSRFSGSGSGTDFTLTISSLQPEDFATYYCAQFYAYPLTFGGGTKVEIK | 0.79 | 1.11 | 0.11 | 0.06 | 0.06 |
| PcOxP_DB01_A12 (scFv, V domains shown, scFv in periplasmic extract) VH: EVQLLESGGGLVQPGGSLRLSCAASGFGFSDFYMEWVRQAPGKGLEWVAASRNKWNDYTTEYADSVKGRFTISRDNSKNTLYLQMNSLRAEDTAVYYCARDYYGSSYWYYDVWGQGTLVTVSS VL: DIQMTQSPSSLSASVGDRVTITCTASESLYSSKHKVHYLAWYQQKPGKAPKLLIYGASNREIGVPSRFSGSGSGTDFTLTISSLQPEDFATYYCQQFYSYPLTFGGGTKVEIK | 0.29 | 1.04 | 0.09 | 0.06 | 0.05 |
| PcOxP_DB01_A06 (scFv, V domains shown, scFv in periplasmic extract) VH: EVQLLESGGGLVQPGGSLRLSCAASGFTFSDYYMEWVRQAPGKGLEWVAASRNKANDYTTEYADSVKGRFTISRDNSKNTLYLQMNSLRAEDTAVYYCARDYYGSSYWYFDVWGQGTLVTVSS VL: DIQMTQSPSSLSASVGDRVTITCTASESLYSSKHKVHYLAWYQQKPGKAPKLLIYGASNRYIGVPSRFSGSGSGTDFTLTISSLQPEDFATYYCAEFYSYPLTFGGGTKVEIK | 0.74 | 1.18 | 0.1 | 0.06 | 0.06 |
| PcOxP_DB01_B01 (scFv, V domains shown, scFv in periplasmic extract) VH: EVQLLESGGGLVQPGGSLRLSCAASGFTFSDQYIEWVRQAPGKGLEWVAASRNKANDYTTEYADSVKGRFTISRDNSKNTLYLQMNSLRAEDTAVYYCARDYLGSSYWYFDVWGQGTLVTVSS VL: DIQMTQSPSSLSASVGDRVTITCTASESLYSSKHKVHYLAWYQQKPGKAPKLLIYGASHRYIGVPSRFSGSGSGTDFTLTISSLQPEDFATYYCAQFYAYPLTFGGGTKVEIK | 0.87 | 0.9 | 0.1 | 0.07 | 0.05 |
| PcOxP_DB01_B05 (scFv, V domains shown, scFv in periplasmic extract) VH: EVQLLESGGGLVQPGGSLRLSCAASGFTASDFYMEWVRQAPGKGLEWVAASRNKWNDYTTEYADSVKGRFTISRDNSKNTLYLQMNSLRAEDTAVYYCARDYYGSSYWYFDVWGQGTLVTVSS VL: DIQMTQSPSSLSASVGDRVTITCTASESLYSSKHKVHYLAWYQQKPGKAPKLLIYGASSLQIGVPSRFSGSGSGTDFTLTISSLQPEDFATYYCAQFYSYPLTFGGGTKVEIK | 0.23 | 0.74 | 0.1 | 0.05 | 0.05 |
| PcOxP_DB01_C04 (scFv, V domains shown, scFv in periplasmic extract) VH: EVQLLESGGGLVQPGGSLRLSCAASGFQFSDFYMEWVRQAPGKGLEWVAASRNKANDYTTEYADSVKGRFTISRDNSKNTLYLQMNSLRAEDTAVYYCARDYYGSSYWYFDVWGQGTLVTVSS VL: DIQMTQSPSSLSASVGDRVTITCTASESLYSSKHKVHYLAWYQQKPGKAPKLLIYGASNRYIGVPSRFSGSGSGTDFTLTISSLQPEDFATYYCAQFYYYPLTFGGGTKVEIK | 1.38 | 1.42 | 0.08 | 0.05 | 0.05 |
| PcOxP_DB01_B09 (scFv, V domains shown, scFv in periplasmic extract) VH: EVQLLESGGGLVQPGGSLRLSCAASGFTFSDYYMEWVRQAPGKGLEWVAASRNKANDYTTEYADSVKGRFTISRDNSKNTLYLQMNSLRAEDTAVYYCARDYYGSSYWYFDVWGQGTLVTVSS VL: DIQMTQSPSSLSASVGDRVTITCTASESLYSSKHKVHYLAWYQQKPGKAPKLLIYGASNRYTGVPSRFSGSGSGTDFTLTISSLQPEDFATYYCAQFYHYPLTFGGGTKVEIK | 1 | 1.42 | 0.1 | 0.05 | 0.05 |
| PcOxP_DB01_C06 (scFv, V domains shown, scFv in periplasmic extract) VH: EVQLLESGGGLVQPGGSLRLSCAASGFEFSDNYMEWVRQAPGKGLEWVAASRNKANDYTTEYADSVKGRFTISRDNSKNTLYLQMNSLRAEDTAVYYCARDYYGSSYWYFDVWGQGTLVTVSS VL: DIQMTQSPSSLSASVGDRVTITCTASESLYSSKHKVHYLAWYQQKPGKAPKLLIYGASNRFIGVPSRFSGSGSGTDFTLTISSLQPEDFATYYCAQFYYYPLTFGGGTKVEIK | 1.18 | 1.31 | 0.08 | 0.05 | 0.05 |
| PcOxP_DB01_C12 (scFv, V domains shown, scFv in periplasmic extract) VH: EVQLLESGGGLVQPGGSLRLSCAASGFTFSDFYMEWVRQAPGKGLEWVAASRNKANDYTTELADSVKGRFTISRDNSKNTLYLQMNSLRAEDTAVYYCARDYYGSSYWYFDVWGQGTLVTVSS VL: DIQMTQSPSSLSASVGDRVTITCTASESLYSSKHKVHYLAWYQQKPGKAPKLLIYGAANRYIGVPSRFSGSGSGTDFTLTISSLQPEDFATYYCAQFYVYPLTFGGGTKVEIK | 0.88 | 1.18 | 0.08 | 0.05 | 0.05 |
| PcOxP_DB01_C08 (scFv, V domains shown, scFv in periplasmic extract) VH: EVQLLESGGGLVQPGGSLRLSCAASGFTFSDGYMEWVRQAPGKGLEWVAASRNKANDYTTEYADSVKGRFTISRDNSKNTLYLQMNSLRAEDTAVYYCARDYYASSYWYFDVWGQGTLVTVSS VL: DIQMTQSPSSLSASVGDRVTITCRASESISSSKNKVHYLAWYQQKPGKAPKLLIYGASNRYYGVPSRFSGSGSGTDFTLTISSLQPEDFATYYCAQFYSYPLTFGGGTKVEIK | 0.38 | 0.79 | 0.1 | 0.06 | 0.05 |
| PcOxP_DB01_B08 (scFv, V domains shown, scFv in periplasmic extract) VH: EVQLLESGGGLVQPGGSLRLSCAASGFTFSDSYMEWVRQAPGKGLEWVAASRNKANDYTTSYADSVKGRFTISRDNSKNTLYLQMNSLRAEDTAVYYCARDYYGSSYWYFDVWGQGTLVTVSS VL: DIQMTQSPSSLSASVGDRVTITCTASESLYSSKHKVHYLAWYQQKPGKAPKLLIYGASNRYIGVPSRFSGSGSGTDFTLTISSLQPEDFATYYCAQFYSYPLTFGGGTKVEIK | 0.41 | 0.89 | 0.1 | 0.06 | 0.05 |
| PcOxP_DB01_C01 (scFv, V domains shown, scFv in periplasmic extract) VH: EVQLLESGGGLVQPGGSLRLSCAASGFTFSDFYMEWVRQAPGKGLEWVAASRNKANDYTTEYADSVKGRFTISRDNSKNTLYLQMNSLRAEDTAVYYCARDYYGSSYWYFDVWGQGTLVTVSS VL: DIQMTQSPSSLSASVGDRVTITCVASESLYSSKHKVHYLAWYQQKPGKAPKLLIYGASNRYIGVPSRFSGSGSGTDFTLTISSLQPEDFATYYCAQFYSYPLTFGGGTKVEIK | 0.71 | 1.13 | 0.11 | 0.06 | 0.05 |
| PcOxP_DB01_C03 (scFv, V domains shown, scFv in periplasmic extract) VH: EVQLLESGGGLVQPGGSLRLSCAASGFTFSDQYMEWVRQAPGKGLEWVAASRNKANDYTTEYADSVKGRFTISRDNSKNTLYLQMNSLRAEDTAVYYCARDYYGSSYWYFDVWGQGTLVTVSS VL: DIQMTQSPSSLSASVGDRVTITCTASESLYSSKHKVHYLAWYQQKPGKAPKLLIYGASNRYIGVPSRFSGSGSGTDFTLTISSLQPEDFATYYCAQFYQYPLTFGGGTKVEIK | 0.98 | 1.37 | 0.1 | 0.06 | 0.05 |
| PcOxP_DB01_B04 (scFv, V domains shown, scFv in periplasmic extract) VH: EVQLLESGGGLVQPGGSLRLSCAASGFTFSDGYMEWVRQAPGKGLEWVAASRNKANDYTTEYADSVKGRFTISRDNSKNTLYLQMNSLRAEDTAVYYCARDYYGSSYWYFDVWGQGTLVTVSS VL: DIQMTQSPSSLSASVGDRVTITCTASESLYSSKHKVHYLAWYQQKPGKAPKLLIYGASNRYIGVPSRFSGSGSGTDFTLTISSLQPEDFATYYCAQFYSYPLTFGGGTKVEIK | 0.57 | 1.02 | 0.08 | 0.06 | 0.05 |
| PcOxP_DB01_B11 (scFv, V domains shown, scFv in periplasmic extract) VH: EVQLLESGGGLVQPGGSLRLSCAASGFTFEDFYMEWVRQAPGKGLEWVAASRNKANDYTTEYADSVKGRFTISRDNSKNTLYLQMNSLRAEDTAVYYCARDYFGSSYWYFDVWGQGTLVTVSS VL: DIQMTQSPSSLSASVGDRVTITCTASESLYSSKHKVHYLAWYQQKPGKAPKLLIYGASNRYHGVPSRFSGSGSGTDFTLTISSLQPEDFATYYCAQFYSYPLTFGGGTKVEIK | 1.11 | 1.32 | 0.09 | 0.05 | 0.04 |
